Here are results for 4 substances from patent US20030219899A1.

What all share (experiment): cell-based or functional assay
For assay [1], the target named is hCAR-tailless, truncation mutant of human CAR lacking the cytoplasmic domain (human) (UniProt P78310).
The target of assay [2] is human coxsackie-adenovirus receptor (hCAR) (human) (UniProt P78310).
For the next assay, the target named is Ad3 receptor.

Turning to “Ad5 wild-type fiber, as displayed on Ad5luc1 (from UniProt P11818 1-581)”, in assay [1], the Ad5luc1 luciferase activity (normalized to Ad5/3luc1) in U118-hCAR-tailless cells against parental U118 cells worked out at 16 fold. In assay [2], the Ad5luc1 luciferase activity (normalized to Ad5/3luc1) in U118-hCAR cells against parental U118 cells stood at 11 fold.
As for “mosaic adenovirus AdMSluc1 displaying both the Ad5 wild-type fiber and the Ad5/3 chimeric fiber on the same virion (from UniProt P11818 1-581; P11818 1-399; P04501 132-319)”, in the assay with Ad3 receptor, the luciferase gene transfer of AdMSluc1 to C33A cells in the presence of purified Ad3 knob was 100 µg/mL. Also, the AdMSluc1 luciferase activity (normalized to Ad5/3luc1) in U118-hCAR-tailless cells against parental U118 cells in assay [1] was 7.5 fold. In assay [2], the AdMSluc1 luciferase activity (normalized to Ad5/3luc1) in U118-hCAR cells against parental U118 cells was determined as 6 fold and the luciferase gene transfer of AdMSluc1 to C33A cells in the presence of purified Ad5 knob; lowest knob concentration with significant block is 0.1 µg/mL.
For “recombinant Ad3 fiber knob protein with N-terminal 6xHis tag expressed in E. coli (from UniProt P04501 119-319)”, the luciferase activity of Ad5/3luc1 on HeLa cells with 100 µg/ml Ad3 knob, against that without knob protein (% of activity without knob protein) in the assay with Ad3 receptor is less than 5.
In turn, “recombinant Ad5 fiber knob protein with N-terminal 6xHis tag expressed in E. coli (from UniProt P11818 387-581)” had a luciferase activity of Ad5luc1 on HeLa cells with 100 µg/ml Ad5 knob, against that without knob protein (% of activity without knob protein) in assay [2] of less than 5.
